B1: Fluorescence Recovery Protein (FRP), His6-tagged, Synechocystis (natural protein)
chain: LQTAEAPWSQAETQSAHALFRKAYQRELDGLLATVQAQASQITQIDDLWKLHDFLSAKRHEIDGKYDDRQSVIIFVFAQLLKEGLVQAEELTFLAADKQSKIKALARL

Legend:
[1] = biological target: OCP variant devoid of the N-terminal extension, purple fraction, ΔNTE(P) (Synechocystis) (UniProt P74102); assay: SEC
[2] = biological target: T1, OCP variant devoid of the N-terminal extension, orange fraction, ΔNTE(O) (Synechocystis, UniProt P74102 21-317); assay: SEC
T1 sequence: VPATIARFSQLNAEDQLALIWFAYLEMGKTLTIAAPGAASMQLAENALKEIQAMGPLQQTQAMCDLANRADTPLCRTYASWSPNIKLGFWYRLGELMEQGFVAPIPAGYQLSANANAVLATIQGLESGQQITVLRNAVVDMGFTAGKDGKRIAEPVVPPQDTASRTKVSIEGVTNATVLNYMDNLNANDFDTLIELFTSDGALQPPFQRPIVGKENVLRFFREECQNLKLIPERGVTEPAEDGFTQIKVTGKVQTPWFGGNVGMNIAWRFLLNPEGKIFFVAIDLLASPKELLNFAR

[3] = biological target: T2, Orange Carotenoid Protein, wildtype, His6-tagged, Synechocystis (OCP^WT) (Synechocystis, UniProt P74102 1-317); assay: cross-linking
T2 sequence: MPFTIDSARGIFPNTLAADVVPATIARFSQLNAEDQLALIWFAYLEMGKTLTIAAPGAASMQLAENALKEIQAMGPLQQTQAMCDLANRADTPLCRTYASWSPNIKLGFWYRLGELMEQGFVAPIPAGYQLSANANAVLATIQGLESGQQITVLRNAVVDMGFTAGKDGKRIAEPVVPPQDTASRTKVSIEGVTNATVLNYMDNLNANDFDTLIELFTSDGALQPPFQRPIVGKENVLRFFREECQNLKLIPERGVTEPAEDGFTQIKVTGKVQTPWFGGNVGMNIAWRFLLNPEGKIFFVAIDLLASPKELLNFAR

cross-linking = biological target: the molecule itself; assay: cross-linking

Molecule | stoichiometry N [1] | Kd [2] | stoichiometry N [2] | stoichiometry N [3] | stoichiometry N (cross-linking)
OCP variant devoid of the N-terminal extension, purple fraction, ΔNTE(P) (from UniProt P74102 21-317) (domain or fragment) | 2 |  |  |  | 
B1 |  | < 1 µM | 1 | 1 | 2

Reference: paper doi:10.1101/116491 (bioRxiv, 2017)
